{
  "source": "paper PMC6092318",
  "about": "“Keap1–MCM3 interaction is a potential coordinator of molecular machineries of antioxidant response and genomic DNA replication in metazoa” (Scientific Reports, 2018)",
  "molecules": {"B1": {"name": "FLAG-MCM3 (mouse, wild type, baculovirus) (natural protein, UniProt P25206 1-812, looked up)", "chain": "MAGTVVLDDVELREAQRDYLDFLDDEEDQGIYQNKVRELISDNQYRLIVSVNDLRRKNEKRANRLLNNAFEELVAFQRALKDFVASIDATYAKQYEEFYIGLEGSFGSKHVSPRTLTSCFLSCVVCVEGIVTKCSLVRPKVVRSVHYCPATKKTIERRYSDLTTLVAFPSSSVYPTKDEENNPLETEYGLSVYKDHQTITIQEMPEKAPAGQLPRSVDVILDDDLVDKVKPGDRIQVVGTYRCLPGKKGCYTSGTFRTVLIACNVKQMSKDIQPAFSADDIAKIKKFSKTRSKDVFEQLARSLAPSIHGHDYVKKAILCLLLGGVERELENGSHIRGDINILLIGDPSVAKSQLLRYVLCTAPRAIPTTGRGSSGVGLTAAVTTDQETGERRLEAGAMVLADRGVVCIDEFDKMSDMDRTAIHEVMEQGRVTIAKAGIHARLNARCSVLAAANPVYGRYDQYKTPMENIGLQDSLLSRFDLLFIMLDQMDPEQDREISDHVLRMHQYRAPGEQDGDALPLGSSVDILATDDPDFTQDDQQDTRIYEKHDSLLHGTKKKKEKMVSAAFMKKYIHVAKIIKPTLTQESAAYIAEEYSRLRSQDSMSSDTARTSPVTARTLETLIRLATAHAKARMSKTVDLQDAEEAVELVQYAYFKKVLEKEKKRKKASEDESDLEDEEEKSQEDTEQKRKRRKTHAKDGESYDPYDFSEAETQMPQVHTPKTDDSQEKTDDSQETQDSQKVELSEPRLKAFKAALLEVFQEAHEQSVGMLHLTESINRNREEPFSSEEIQACLSRMQDDNQVMVSEGIVFLI", "notes": "MCM3, mouse; cDNA cloned into pFastBac1; also called WT MCM3; source: Sf9, baculovirus infected, in extract; not shown: FLAG, N-terminal, kept"}, "B2": {"name": "HA-MCM-BP (mouse, baculovirus) (natural protein, UniProt Q8R3C0 1-642, looked up)", "chain": "MPCGEDWLSHPLGIVQGFFAQNGVNPDWEKKVIEYFKEKLKENNAPKWVPSLNEVPLHYLKPNSFVKFRCMIQDMFDPEFYMGIYETVNQNTKARVLHFGKYRDVAECGPQQELDLSSPRSTTSERQTFYCVPVPGESSWVKEAYVNANQARVSPSTSYTPSRHKRSYEDDEDMDLQPSKQKEQHPGSRQAGGLGGLHWCGEPKRLETEASSGQQLNTLNLSSPFDLNFPLPGEKGPACLVKVYEDWDCFKVNDVLELYGVLSVDPVLSVLNSEERDASALLDPMECTDMAEEQRVHSPPASLVPRIHVILAQKLQHINPLLPTCLNKEESRSCQFVSNFMSELSPVRAELLGFLTHALLGDSLAAEYLILHLISTVYTRRDVLPLGKFTVNLSGCPQNSTFTEHLYRIIQHLVPASFRLQMTIENMNQLKLIPHKDYTANRLVSGLLQLPNNTSLVIDETLLEQGQLDTPGVHNVTALSNLITWQKVDYDFSYHQMEFPCNINVLITSEGRSLLPADCQIHLQPQLIPPNMEEYMNGLLSAVLPSVLNKFRIYLTLLRFLDYNLSDDITKAVEDDFVEMRKDDPQSITADDLHQLLVVARFLSLSVGQTTLSRERWLRAKQLELSRKARLQQQKSVNGNEL", "notes": "MCM-BP, mouse; cDNA cloned into pFastBac1; source: Sf9, baculovirus infected, in extract"}},
  "key": {"[1]": {"molecular_target": "FLAG-MCM3 (mouse MCM3 expressed in CHO-EBNALT85 cells) (mouse) (UniProt P25206)", "test": "co-IP; anti-FLAG M2 beads on whole cell, nuclear and cytoplasmic extracts of FLAG-MCM3 expressing CHOEBNALT85 cells, 150 mM KCl, Western blot"}, "[2]": {"molecular_target": "T1, strep-Keap1 (mouse, wild type, baculovirus) (mouse, UniProt Q9Z2X8 1-624)", "T1 construct": "Keap1, mouse; cDNA cloned into pFastBac1; also called strep tagged Keap1; strp-Keap1; source: Sf9, baculovirus infected, in extract; not shown: Strep-tag II, N-terminal, kept", "T1 sequence (Q9Z2X8 whole entry)": "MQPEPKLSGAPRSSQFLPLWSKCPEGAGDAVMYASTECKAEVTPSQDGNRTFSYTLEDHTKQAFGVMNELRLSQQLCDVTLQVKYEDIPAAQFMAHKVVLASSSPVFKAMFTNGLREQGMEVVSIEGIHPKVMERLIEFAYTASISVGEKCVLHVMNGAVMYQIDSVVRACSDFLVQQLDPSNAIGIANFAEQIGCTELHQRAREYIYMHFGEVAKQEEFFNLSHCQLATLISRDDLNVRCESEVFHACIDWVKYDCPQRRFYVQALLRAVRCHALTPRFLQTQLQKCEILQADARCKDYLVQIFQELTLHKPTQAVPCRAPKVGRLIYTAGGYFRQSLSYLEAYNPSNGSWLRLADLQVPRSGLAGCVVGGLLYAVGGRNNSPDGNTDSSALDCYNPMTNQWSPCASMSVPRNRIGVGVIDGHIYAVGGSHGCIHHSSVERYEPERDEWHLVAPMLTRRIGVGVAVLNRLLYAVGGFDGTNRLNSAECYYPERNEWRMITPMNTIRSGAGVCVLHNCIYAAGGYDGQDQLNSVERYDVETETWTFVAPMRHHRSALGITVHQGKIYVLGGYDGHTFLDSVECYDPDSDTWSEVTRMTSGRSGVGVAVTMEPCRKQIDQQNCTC", "test": "SEC; Superose 6 10/300 GL of the strep-Keap1 - FLAG-MCM3 tandem purified complex, 100 mM KCl buffer; densitometry of the Coomassie stained gel", "conditions": "partners not purified"}, "[3]": {"molecular_target": "B1", "test": "SEC; Superose 6 10/300 GL of the strep-Keap1 - FLAG-MCM3 tandem purified complex, 100 mM KCl buffer; densitometry of the Coomassie stained gel", "conditions": "partners not purified"}},
  "data": [
    {"molecule": "Keap1 (endogenous, CHO cells) (natural protein)", "values": [
      {"measurement": "percent of soluble MCM3 and Keap1 pulled down together", "setting": "[1]", "result": "5 to 10", "unit": "%"}
    ]},
    {"molecule": "B1", "values": [
      {"measurement": "stoichiometry N", "setting": "[2]", "result": "~1"}
    ]},
    {"molecule": "B2", "values": [
      {"measurement": "stoichiometry N", "setting": "[3]", "result": "~1"}
    ]}
  ]
}
